Literature values, collected in patent US20260055200A1, “COMBINATION THERAPIES” (Alligator Bioscience AB, priority 2022, published 2026).
Read-outs that look alike come from different tables or passages of the source.

How the values were obtained:
[1] = system: previously untreated pancreatic cancer; settings: cited from earlier work
[2] = system: metastatic pancreatic cancer; settings: standard first-line treatment; cited from earlier work
[3] = system: metastatic pancreatic cancer; settings: PRODIGE 4, 342 patients; cited from earlier work
[4] = system: metastatic pancreatic cancer; settings: MPACT study; cited from earlier work
[5] = system: previously untreated metastatic pancreatic cancer; settings: cited from earlier work
[6] = in combination with Gem-NabPac with or without nivolumab

Molecule: Selicrelumab: CD40 agonistic monoclonal antibody, with an IgG2 format
- DLT ([1]; 0.2 mg/kg dose level, with gemcitabine): One DLT, a cerebrovascular accident
- proportion of patients with liver enzyme elevations ([1]; all grade 1-2, with gemcitabine): approximately ⅔
- dose up to which the combination was well tolerated ([1]; in combination with gemcitabine): up to 0.2 mg/kg
- complete responses ([1]; with gemcitabine): no complete responses (CR) were observed
- patients with cytokine release syndrome in relation to the infusion ([1]; with gemcitabine): 20 of the 22
- response rate ([1]; with gemcitabine): 19%

Molecule: Nc1ccn([C@@H]2O[C@H](CO)[C@@H](O)C2(F)F)c(=O)n1 [gemcitabine]
- median overall survival (mOS) [2]: about 6 months
- mOS [3]: 6.8 months
- objective response rate (ORR) [3]: 9.4%
- ORR [4]: 7%
- mOS [4]: 6.7 months

B1: APX005M: CD40 agonistic monoclonal antibody, with a mutated IgG1 format for improved binding to FcγR2b (antibody, chains of the INN, looked up, V domains shown)
VH: QVQLVESGGGVVQPGRSLRLSCAASGFSFSSTYVCWVRQAPGKGLEWIACIYTGDGTNYSASWAKGRFTISKDSSKNTVYLQMNSLRAEDTAVYFCARPDITYGFAINFWGPGTLVTVSS
VL: DIQMTQSPSSLSASVGDRVTIKCQASQSISSRLAWYQQKPGKPPKLLIYRASTLASGVPSRFSGSGSGTDFTLTISSLQPEDVATYYCQCTGYGISWPIGGGTKVEIK
- Complete Response, patients ([5]; Total (N = 24)): 0
- Not Evaluable, patients (%) ([5]; Total (N = 24)): 1 (4%)
- Partial Response, patients (%) ([5]; Total (N = 24)): 13 (54%)
- Progressive Disease, patients (%) ([5]; Total (N = 24)): 1 (4%)
- Stable Disease, patients (%) ([5]; Total (N = 24)): 9 (38%)
- circulating mutant KRAS DNA [5, 6]: marked and rapid decrease
- immune profiling of PBMCs, myeloid compartment [5, 6]: rapid activation of DCs in most patients
